# According to article PMC7948422, “Repurposing p97 inhibitors for chemical modulation of the bacterial ClpB–DnaK bichaperone system” (The Journal of Biological Chemistry, 2020):
# What was measured:
# FITC-casein [1] = assay: fluorescence polarisation; fluorescence anisotropy; ClpB E279Q/E678Q titrated into 100-nM FITC-casein with 5-mM ATP, without DBeQ; fit of a binding isotherm with a Hill number
# FITC-casein [2] = assay: fluorescence polarisation; fluorescence anisotropy; ClpB E279Q/E678Q titrated into 100-nM FITC-casein with 5-mM ATP and 80-μM DBeQ; fit of a binding isotherm with a Hill number
substance,measurement,setting,value
ClpB E279Q/E678Q (from UniProt P63284 1-857) (enzyme),Kd,FITC-casein [1],77.3 nM
same,Kd,FITC-casein [2],78.5 nM
